Tests used:
human IL-36R on cells [1] = target: T1, human IL-36R on cells (human, UniProt Q9HB29 20-575); assay: cell-based or functional assay
T1 sequence (looked up): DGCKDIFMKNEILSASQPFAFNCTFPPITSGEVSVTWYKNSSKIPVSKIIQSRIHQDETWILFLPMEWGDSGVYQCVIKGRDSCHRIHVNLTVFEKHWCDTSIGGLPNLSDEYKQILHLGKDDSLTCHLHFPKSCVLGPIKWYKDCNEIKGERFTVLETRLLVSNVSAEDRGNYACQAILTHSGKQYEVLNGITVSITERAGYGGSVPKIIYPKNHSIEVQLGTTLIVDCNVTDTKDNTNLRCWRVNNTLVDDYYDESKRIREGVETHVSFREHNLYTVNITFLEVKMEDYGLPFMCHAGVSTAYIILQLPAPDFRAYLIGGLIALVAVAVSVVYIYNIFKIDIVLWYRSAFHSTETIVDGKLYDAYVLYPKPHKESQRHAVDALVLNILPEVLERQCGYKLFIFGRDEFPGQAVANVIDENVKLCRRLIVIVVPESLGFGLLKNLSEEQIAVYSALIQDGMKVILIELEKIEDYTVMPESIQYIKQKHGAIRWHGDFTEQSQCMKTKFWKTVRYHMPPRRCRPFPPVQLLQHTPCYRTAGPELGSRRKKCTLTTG

human IL-36R on cells [2] = target: T1, human IL-36R on cells; assay: flow cytometry, HEK293 cells transfected with full-length human IL-36R
Procedure: HEK293 cells transfected with full-length human IL-36R or NCI/ADR-RES cells were passaged for 24 hours prior to staining. Cells were removed from flasks by rinsing with 10 ml of 5 mM EDTA in PBS, and then incubated at 37° C. for 10 min with an additional 10 ml of 5 mM EDTA and 2.5 ml of Accumax to declump/disperse cells. Antibodies were then diluted to specified concentrations in PBS+2% BSA, and cells incubated for 20 min at room temperature. Excess antibody was then washed by adding 200 μl of PBS and then centrifuged. Secondary reagent was then added at 50 μl per well and cells are incubated for 15 min at room temperature and then washed as above. Cells were resuspended in 200 μl PBS and analyzed by flow cytometry.

[3] = target: T2, recombinant human IL-36R (ECD) (human, UniProt Q9HB29 20-332); assay: SPR (ProteOn), recombinant human IL-36R at 7 surface densities, global fit
T2 construct: range 20-332; also called IL-1RL2; IL-1Rrp2
T2 sequence (looked up): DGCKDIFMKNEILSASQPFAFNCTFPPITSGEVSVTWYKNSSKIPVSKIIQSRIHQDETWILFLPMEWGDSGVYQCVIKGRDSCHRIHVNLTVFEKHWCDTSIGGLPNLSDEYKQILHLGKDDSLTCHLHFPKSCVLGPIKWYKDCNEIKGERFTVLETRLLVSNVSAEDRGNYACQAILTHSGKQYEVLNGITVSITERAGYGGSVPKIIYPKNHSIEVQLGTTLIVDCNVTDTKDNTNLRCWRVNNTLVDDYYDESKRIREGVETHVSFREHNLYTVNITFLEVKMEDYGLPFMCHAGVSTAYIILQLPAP
Procedure: A) Kinetics and binding affinities of anti-IL-36R antibodies binding to recombinant human IL-36R were measured using the Proteon (Bio-Rad, Hercules, Calif.) using material generated from hybridoma following single column purification. […] The binding affinities of the mouse antibodies to human IL-36R run at 7 different surface densities (globally fit) is shown in Table 1. Binding of the chimeric anti-IL36R IgGs is equivalent to the respective mouse leads.

human IL-1R1 = target: T3, human IL-1R1 (human, UniProt P14778 18-336, limits assumed); assay: BLI (Fortebio Octet), antibody injected over antigen surface
T3 construct: also called IL-1RI
T3 sequence (looked up): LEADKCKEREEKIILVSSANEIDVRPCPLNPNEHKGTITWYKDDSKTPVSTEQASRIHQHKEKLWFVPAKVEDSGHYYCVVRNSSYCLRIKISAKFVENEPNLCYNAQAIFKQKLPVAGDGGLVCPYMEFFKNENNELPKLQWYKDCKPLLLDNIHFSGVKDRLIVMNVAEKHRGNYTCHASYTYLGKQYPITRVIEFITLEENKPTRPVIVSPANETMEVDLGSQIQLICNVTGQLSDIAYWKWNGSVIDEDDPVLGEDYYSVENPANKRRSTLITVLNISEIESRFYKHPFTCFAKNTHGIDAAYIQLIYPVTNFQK
Procedure: (§1) B) Molecular selectivity over mouse IL-36R and human IL-1R1 The mouse and chimeric anti-IL-36R antibodies were also injected over either a mouse IL-36R or a human IL-1R1 surface at a concentration of 100 nM. The binding signal to mouse IL-36R and to human IL-1R1 for these antibodies measured using the Fortebio Octet (Fortebio, Menlo Park, Calif.) is zero, which indicates these antibodies selectively bind to human IL-36R.

mouse IL-36R = target: T4, mouse IL-36R (mouse, UniProt Q9ERS7 22-338); assay: as above
T4 sequence (looked up): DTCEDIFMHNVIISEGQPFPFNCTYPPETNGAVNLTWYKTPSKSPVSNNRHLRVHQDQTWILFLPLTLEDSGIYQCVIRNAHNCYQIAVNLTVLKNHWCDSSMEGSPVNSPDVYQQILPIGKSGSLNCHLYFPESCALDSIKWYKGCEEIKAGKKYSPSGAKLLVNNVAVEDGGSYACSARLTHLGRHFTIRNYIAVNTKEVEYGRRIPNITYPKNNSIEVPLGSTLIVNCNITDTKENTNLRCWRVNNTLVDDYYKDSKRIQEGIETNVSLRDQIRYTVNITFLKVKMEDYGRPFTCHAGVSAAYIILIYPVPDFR
Procedure: as §1

[4] = target: cynomolgus IL-36R on BaF/3 cells (cynomolgus, UniProt A0A2K5WSK9 20-558); assay: cell-based or functional assay
cynomolgus IL-36R on BaF/3 cells, sequence (A0A2K5WSK9 entry or part of it): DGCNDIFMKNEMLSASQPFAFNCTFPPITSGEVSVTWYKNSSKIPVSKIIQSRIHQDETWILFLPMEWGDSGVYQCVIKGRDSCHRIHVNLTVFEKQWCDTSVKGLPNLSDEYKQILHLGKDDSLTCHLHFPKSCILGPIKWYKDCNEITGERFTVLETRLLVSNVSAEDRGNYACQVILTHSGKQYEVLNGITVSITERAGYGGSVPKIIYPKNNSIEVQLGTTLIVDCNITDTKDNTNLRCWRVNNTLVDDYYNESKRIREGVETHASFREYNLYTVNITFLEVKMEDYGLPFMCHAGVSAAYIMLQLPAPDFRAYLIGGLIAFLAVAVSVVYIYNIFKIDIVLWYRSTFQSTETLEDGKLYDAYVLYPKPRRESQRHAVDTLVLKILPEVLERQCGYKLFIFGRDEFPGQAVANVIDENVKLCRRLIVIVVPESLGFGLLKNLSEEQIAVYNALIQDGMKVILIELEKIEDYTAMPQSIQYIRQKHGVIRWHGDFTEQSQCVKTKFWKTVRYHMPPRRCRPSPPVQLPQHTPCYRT

human IL-36R on cells [5] = target: T1, human IL-36R on cells; assay: cell-based or functional assay; remark: listed apart in the source
[6] = target: T2, recombinant human IL-36R (ECD); assay: SPR (ProteOn), single IL-36R surface coat concentration
How it was run: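 Anti-IL-36R antibodies, single-column purified from hybridoma material, were analyzed by ProteOn SPR for binding kinetics and affinity to recombinant human IL-36R. Global fit used 7 receptor surface densities; the other format used a single surface coat concentration.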

B1: antibody 73F6 (antibody, V domains shown)
VH: QVQLKESGPGLVAPSQSLSITCTVSGFSLTNYAVHWVRQFPGKGLEWLGVIWSDGSTDYNAPFKSRLSINKDNSKSQVFFKMNSLQTDDTAIYYCARKGGYSGSWFAYWGQGTLVTVSA
VL: DIVMTQSQKFLSTSVGVRVSVTCKASQDVGTNVLWYQQKIGQSPKALIYSASYRHSGVPDRFTGSGSGTDFTLIITNVQSEDLAEYFCQQYSRYPLTFGPGTKLELK
notes: Mouse monoclonal from hybridoma; also called 73F6F8; Mouse 73F6
Human IL-36R on cells [1]
  IC90, IL-8 release, human primary keratinocytes (NHK), trun-IL-36a: 17.8 nM
  IC90, IL-8 release, human primary keratinocytes (NHK), trun-IL-36b: 26 nM
  IC90, IL-8 release, human primary keratinocytes (NHK), trun-IL-36g: 2.1 nM
  IC90, pNFκB, human primary keratinocytes (NHK), trun-IL-36a: 8.2 nM
  IC90, pNFκB, human primary keratinocytes (NHK), trun-IL-36b: 5.2 nM
  IC90, pNFκB, human primary keratinocytes (NHK), trun-IL-36g: 1.3 nM
Human IL-36R on cells [2]
  EC50: 0.746 nM
[3]
  Kd: 0.025 nM
Human IL-1R1
  binding result: no binding (tested: 100 nM)
Mouse IL-36R
  binding result: no binding (tested: 100 nM)
[4]
  IC90, pNFκB, BaF/3 cynomolgus IL-36R cells, trun-IL-36a: 0.5 nM
  IC90, pNFκB, BaF/3 cynomolgus IL-36R cells, trun-IL-36b: 0.7 nM
  IC90, pNFκB, BaF/3 cynomolgus IL-36R cells, trun-IL-36g: 0.8 nM
Human IL-36R on cells [5]
  IC90, GM-CSF release, NCI/ADR-RES cells, trun-IL-36a: 5.9 nM
  IC90, GM-CSF release, NCI/ADR-RES cells, trun-IL-36b: 1.7 nM
  IC90, GM-CSF release, NCI/ADR-RES cells, trun-IL-36g: 1.4 nM
  IC90, IL-6 release, NCI/ADR-RES cells, trun-IL-36a: 19 nM
  IC90, IL-6 release, NCI/ADR-RES cells, trun-IL-36b: 5.1 nM
  IC90, IL-6 release, NCI/ADR-RES cells, trun-IL-36g: 2.2 nM
  IC90, IL-8 release, NCI/ADR-RES cells, trun-IL-36a: 3.2 nM
  IC90, IL-8 release, NCI/ADR-RES cells, trun-IL-36b: 0.8 nM
  IC90, IL-8 release, NCI/ADR-RES cells, trun-IL-36g: 0.9 nM
  IC90, pNFκB, NCI/ADR-RES cells, trun-IL-36a: 2.8 nM
  IC90, pNFκB, NCI/ADR-RES cells, trun-IL-36b: 3 nM
  IC90, pNFκB, NCI/ADR-RES cells, trun-IL-36g: 1.5 nM
[6]
  Kd: < 0.1 nM

From patent US20200231684A1 (published 2020)
